B1: Nucleoside diphosphate kinase homolog 5 (Homo sapiens), P56597 (parent)
chain: MEISMPPPQIYVEKTLAIIKPDIVDKEEEIQDIILRSGFTIVQRRKLRLSPEQCSNFYVEKYGKMFFPNLTAYMSSGPLVAMILARHKAISYWLELLGPNNSLVAKETHPDSLRAIYGTDDLRNALHGSNDFAAAEREIRFMFPEVIVEPIPIGQAAKDYLNLHIMPTLLEGLTELCKQKPADPLIWLADWLLKNNPNKPKLCHHPIVEEPY
partner: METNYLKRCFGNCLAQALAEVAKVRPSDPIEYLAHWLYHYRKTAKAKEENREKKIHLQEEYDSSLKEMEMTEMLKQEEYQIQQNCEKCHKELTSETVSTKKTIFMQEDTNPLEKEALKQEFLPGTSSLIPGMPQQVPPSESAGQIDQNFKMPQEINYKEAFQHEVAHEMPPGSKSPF
B2: Uncharacterized protein C3orf62 (Homo sapiens), Q6ZUJ4 (parent)
chain: MHYIKTWSLLGEMSEKLRRCRKELTAAIDRAFEGVSYSQECTGQQRLELSAAPLSFSLPVHRLLCRRHPLAACSSAAPFAAVPCAPENENPAFATNHAPVNAKPHALCPERKPLTSKENVLMHSSILAPERESWRTAGEGENWRKENLRKDMERDLKADSNMPLNNSSQEVTKDLLDMIDHTSIRTIEELAGKIEFENELNHMCGHCQDSPFKEEAWALLMDKSPQKATDADPGSLKQAFDDHNIVETVLDLEEDYNVMTSFKYQIE
partner: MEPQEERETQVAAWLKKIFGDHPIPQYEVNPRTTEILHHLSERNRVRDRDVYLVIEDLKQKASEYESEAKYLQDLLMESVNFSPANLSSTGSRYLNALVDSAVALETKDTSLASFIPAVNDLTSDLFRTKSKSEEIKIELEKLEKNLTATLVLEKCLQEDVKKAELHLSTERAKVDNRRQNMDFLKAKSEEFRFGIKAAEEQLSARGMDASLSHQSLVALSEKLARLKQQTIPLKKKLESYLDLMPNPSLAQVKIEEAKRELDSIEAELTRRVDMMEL
B3: Adenosylhomocysteinase (Homo sapiens), P23526 (parent)
chain: MSDKLPYKVADIGLAAWGRKALDIAENEMPGLMRMRERYSASKPLKGARIAGCLHMTVETAVLIETLVTLGAEVQWSSCNIFSTQDHAAAAIAKAGIPVYAWKGETDEEYLWCIEQTLYFKDGPLNMILDDGGDLTNLIHTKYPQLLPGIRGISEETTTGVHNLYKMMANGILKVPAINVNDSVTKSKFDNLYGCRESLIDGIKRATDVMIAGKVAVVAGYGDVGKGCAQALRGFGARVIITEIDPINALQAAMEGYEVTTMDEACQEGNIFVTTTGCIDIILGRHFEQMKDDAIVCNIGHFDVEIDVKWLNENAVEKVNIKPQVDRYRLKNGRRIILLAEGRLVNLGCAMGHPSFVMSNSFTNQVMAQIELWTHPDKYPVGVHFLPKKLDEAVAEAHLGKLNVKLTKLTEKQAQYLGMSCDGPFKPDHYRY
partner: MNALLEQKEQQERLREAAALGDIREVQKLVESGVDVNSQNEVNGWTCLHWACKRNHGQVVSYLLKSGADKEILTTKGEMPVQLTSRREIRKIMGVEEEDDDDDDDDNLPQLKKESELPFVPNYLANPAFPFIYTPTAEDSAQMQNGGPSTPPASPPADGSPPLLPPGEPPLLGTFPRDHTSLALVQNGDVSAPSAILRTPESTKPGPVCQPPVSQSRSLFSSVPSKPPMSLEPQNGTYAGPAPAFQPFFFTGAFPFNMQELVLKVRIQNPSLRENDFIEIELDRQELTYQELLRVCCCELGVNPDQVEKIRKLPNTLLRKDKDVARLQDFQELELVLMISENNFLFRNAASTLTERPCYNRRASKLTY
B4: Keratin, type II cuticular Hb6 (Homo sapiens), O43790 (parent)
chain: MTCGSYCGGRAFSCISACGPRPGRCCITAAPYRGISCYRGLTGGFGSHSVCGGFRAGSCGRSFGYRSGGVCGPSPPCITTVSVNESLLTPLNLEIDPNAQCVKQEEKEQIKSLNSRFAAFIDKVRFLEQQNKLLETKLQFYQNRECCQSNLEPLFEGYIETLRREAECVEADSGRLASELNHVQEVLEGYKKKYEEEVSLRATAENEFVALKKDVDCAYLRKSDLEANVEALIQEIDFLRRLYEEEIRVLQSHISDTSVVVKLDNSRDLNMDCIIAEIKAQYDDIVTRSRAEAESWYRSKCEEMKATVIRHGETLRRTKEEINELNRMIQRLTAEVENAKCQNSKLEAAVAQSEQQGEAALSDARCKLAELEGALQKAKQDMACLIREYQEVMNSKLGLDIEIATYRRLLEGEEQRLCEGVGSVNVCVSSSRGGVVCGDLCASTTAPVVSTRVSSVPSNSNVVVGTTNACAPSARVGVCGGSCKRC
B5: THAP domain-containing protein 8 (Homo sapiens), Q8NA92 (parent)
chain: MPKYCRAPNCSNTAGRLGADNRPVSFYKFPLKDGPRLQAWLQHMGCEHWVPSCHQHLCSEHFTPSCFQWRWGVRYLRPDAVPSIFSRGPPAKSQRRTRSTQKPVSPPPPLQKNTPLPQSPAIPVSGPVRLVVLGPTSGSPKTVATMLLTPLAPAPTPERSQPEVPAQQAQTGLGPVLGALQRRVRRLQRCQERHQAQLQALERLAQQLHGESLLARARRGLQRLTTAQTLGPEESQTFTIICGGPDIAMVLAQDPAPATVDAKPELLDTRIPSA

Variants of: B1
Settings: with dydc2_human DYDC2, Q96IM9

| effect of a mutation on the interaction | Variant |
| --- | --- |
| with no effect | S50N |
| with no effect | I165M |
| with no effect | L103F |
| with no effect | N198D |

Variants of: B2
Settings: with haus1_human HAUS1, Q96CS2

| effect of a mutation on the interaction | Variant |
| --- | --- |
| with no effect | R66G |

Variants of: B3
Settings: with anr40_human ANKRD40, Q6AI12

| effect of a mutation on the interaction | Variant |
| --- | --- |
| with no effect | I92V |

Variants of: B4
Settings: with KRT15, P19012
Chain of KRT15, P19012 (P19012 whole entry): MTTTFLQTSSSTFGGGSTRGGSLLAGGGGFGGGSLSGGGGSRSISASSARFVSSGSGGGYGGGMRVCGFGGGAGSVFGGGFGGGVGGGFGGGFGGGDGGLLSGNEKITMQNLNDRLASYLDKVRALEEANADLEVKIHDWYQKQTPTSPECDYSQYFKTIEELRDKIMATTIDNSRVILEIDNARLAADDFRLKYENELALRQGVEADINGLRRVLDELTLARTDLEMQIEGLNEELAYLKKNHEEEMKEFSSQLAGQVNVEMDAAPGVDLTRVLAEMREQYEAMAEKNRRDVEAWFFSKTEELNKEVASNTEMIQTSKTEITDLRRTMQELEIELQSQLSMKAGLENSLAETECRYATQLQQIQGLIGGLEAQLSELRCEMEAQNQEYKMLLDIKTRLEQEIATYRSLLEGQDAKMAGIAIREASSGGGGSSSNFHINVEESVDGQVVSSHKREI

| effect of a mutation on the interaction | Variant |
| --- | --- |
| with no effect | R327C |
| with no effect | R408H |

Variants of: B5
Settings: with tfp11_human TFIP11, Q9UBB9
Chain of tfp11_human TFIP11, Q9UBB9 (Q9UBB9 whole entry): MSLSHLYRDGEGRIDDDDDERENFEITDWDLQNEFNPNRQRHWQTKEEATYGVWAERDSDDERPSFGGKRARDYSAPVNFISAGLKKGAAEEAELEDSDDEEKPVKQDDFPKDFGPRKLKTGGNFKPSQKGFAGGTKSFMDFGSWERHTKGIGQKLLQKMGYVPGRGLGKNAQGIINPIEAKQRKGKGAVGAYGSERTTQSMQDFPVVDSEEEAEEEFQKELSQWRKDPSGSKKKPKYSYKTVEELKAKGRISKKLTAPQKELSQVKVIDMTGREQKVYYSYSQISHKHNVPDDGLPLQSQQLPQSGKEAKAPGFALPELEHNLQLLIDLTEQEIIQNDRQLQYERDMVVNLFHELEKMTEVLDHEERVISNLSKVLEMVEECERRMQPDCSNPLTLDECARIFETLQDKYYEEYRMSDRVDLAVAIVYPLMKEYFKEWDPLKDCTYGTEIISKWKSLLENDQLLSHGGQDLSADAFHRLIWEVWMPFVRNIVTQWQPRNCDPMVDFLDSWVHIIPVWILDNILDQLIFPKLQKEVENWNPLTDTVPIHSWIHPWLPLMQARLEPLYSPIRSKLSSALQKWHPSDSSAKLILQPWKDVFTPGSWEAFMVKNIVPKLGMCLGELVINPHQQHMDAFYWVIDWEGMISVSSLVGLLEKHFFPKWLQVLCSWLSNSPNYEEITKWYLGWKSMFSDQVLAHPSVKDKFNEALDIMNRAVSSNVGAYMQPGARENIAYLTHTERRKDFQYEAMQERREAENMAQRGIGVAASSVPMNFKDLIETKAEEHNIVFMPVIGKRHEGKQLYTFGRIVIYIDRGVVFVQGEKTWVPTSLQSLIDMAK

| effect of a mutation on the interaction | Variant |
| --- | --- |
| with no effect | R185Q |
| with no effect | R189W |

Reference: IntAct's records for PubMed 31515488
